Reference: PMC5705280

Molecular target: Cul3 (Cullin3) (UniProt Q9JLV5)
Assay: co-IP
Conditions: reference: PHLPP2 wild type; sites S1119,S1210

binding against the reference: weaker
Substance: PHLPP2 (from UniProt Q6ZVD8) PHLPP2-2A (S1119A/S1210A)
